Source: publication PMC6662825, “The MTR4 helicase recruits nuclear adaptors of the human RNA exosome using distinct arch-interacting motifs” (Nature Communications, 2019)
Numbering of substitutions follows the chain as printed.

Columns and labels:
Details in all cases: both partners purified
[1] = target: T1, GST-MTR4∆N R743E (human, UniProt P42285 75-1042, R743E); assay: pull-down; GST-MTR4∆N (WT or mutants) as bait, 30 μM, with 60 μM Trx-NOP53^84–123 in 30 μl, glutathione sepharose; 50 mM Hepes pH 7.5, 150 mM NaCl, 5% glycerol, 0.05% NP40, 1 mM DTT, 4 °C; SDS-PAGE, Coomassie
T1 construct: also called R743E mutant; source: E. coli BL21 star (DE3), purified (Ni-NTA, heparin, SEC); not shown: 6xHis-GST, N-terminal, kept
T1 sequence (looked up): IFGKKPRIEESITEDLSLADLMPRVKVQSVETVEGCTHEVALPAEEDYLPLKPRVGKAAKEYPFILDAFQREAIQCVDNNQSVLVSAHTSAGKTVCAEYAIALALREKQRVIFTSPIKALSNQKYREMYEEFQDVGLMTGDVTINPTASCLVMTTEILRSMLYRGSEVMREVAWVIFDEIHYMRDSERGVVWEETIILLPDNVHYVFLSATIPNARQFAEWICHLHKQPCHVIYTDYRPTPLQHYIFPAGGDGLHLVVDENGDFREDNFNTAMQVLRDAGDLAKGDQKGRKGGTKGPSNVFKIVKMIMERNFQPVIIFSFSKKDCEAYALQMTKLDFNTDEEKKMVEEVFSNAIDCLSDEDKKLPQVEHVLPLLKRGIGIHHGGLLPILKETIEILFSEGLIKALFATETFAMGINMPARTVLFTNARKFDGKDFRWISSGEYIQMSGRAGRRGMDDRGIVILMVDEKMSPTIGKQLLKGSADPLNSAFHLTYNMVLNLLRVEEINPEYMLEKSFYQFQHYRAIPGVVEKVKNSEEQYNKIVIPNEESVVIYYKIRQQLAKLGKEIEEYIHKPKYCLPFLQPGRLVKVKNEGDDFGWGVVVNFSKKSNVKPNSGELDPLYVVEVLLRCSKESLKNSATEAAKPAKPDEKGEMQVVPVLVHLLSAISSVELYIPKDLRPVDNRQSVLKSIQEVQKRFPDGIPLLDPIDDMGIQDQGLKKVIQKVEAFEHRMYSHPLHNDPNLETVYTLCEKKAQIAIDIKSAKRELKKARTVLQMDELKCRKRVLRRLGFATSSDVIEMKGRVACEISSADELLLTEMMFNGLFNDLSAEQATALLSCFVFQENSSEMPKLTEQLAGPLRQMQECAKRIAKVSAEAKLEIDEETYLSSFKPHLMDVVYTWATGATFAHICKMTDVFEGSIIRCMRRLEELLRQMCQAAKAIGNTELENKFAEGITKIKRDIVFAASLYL

[2] = target: T2, GST-MTR4-∆N (human, UniProt P42285 75-1042); assay: as above
T2 construct: Tag is cleavable with 3C protease; kept for the GST pull-downs; also called GST-tagged MTR4∆N; source: E. coli BL21 star (DE3), purified (Ni-NTA, heparin, SEC); not shown: 6xHis-GST, N-terminal, kept
T2 sequence (looked up): T1 sequence (looked up) with E669R

[3] = target: T3, GST-MTR4∆N F677E (human, UniProt P42285 75-1042, F677E); assay: as above
T3 construct: source: E. coli BL21 star (DE3), purified (Ni-NTA, heparin, SEC); not shown: 6xHis-GST, N-terminal, kept
T3 sequence (looked up): T1 sequence (looked up) with F603E, E669R

[4] = target: T4, MTR4-∆N (human, UniProt P42285 75-1042); assay: ITC; 500 µM NVL injected into 40 µM MTR4-∆N; 25 °C; 50 mM Hepes/NaOH pH 7.5, 150 mM NaCl, 0.5 mM TCEP
T4 construct: Used in ITC, named without GST; the tag was probably cleaved ('when appropriate'); also called MTR4-∆N (the reactant); source: E. coli BL21 star (DE3), purified (Ni-NTA, heparin, SEC)
T4 sequence (looked up): T1 sequence (looked up) with E669R

[5] = target: T5, MTR4∆N2 (70–1042) (human, UniProt P42285 70-1042); assay: crystal structure; MTR4∆N2 (70–1042) mixed with 2 molar excess of NVL (167–216), with ADP and MgCl2; 3.07 Å, space group P6(1); PDB 6RO1
T5 construct: human MTR4; Crystallised with ADP and MgCl2 in the buffer; source: E. coli, purified; GST fusion cleaved with TEV; not shown: GST, N-terminal, cleaved
T5 sequence (looked up): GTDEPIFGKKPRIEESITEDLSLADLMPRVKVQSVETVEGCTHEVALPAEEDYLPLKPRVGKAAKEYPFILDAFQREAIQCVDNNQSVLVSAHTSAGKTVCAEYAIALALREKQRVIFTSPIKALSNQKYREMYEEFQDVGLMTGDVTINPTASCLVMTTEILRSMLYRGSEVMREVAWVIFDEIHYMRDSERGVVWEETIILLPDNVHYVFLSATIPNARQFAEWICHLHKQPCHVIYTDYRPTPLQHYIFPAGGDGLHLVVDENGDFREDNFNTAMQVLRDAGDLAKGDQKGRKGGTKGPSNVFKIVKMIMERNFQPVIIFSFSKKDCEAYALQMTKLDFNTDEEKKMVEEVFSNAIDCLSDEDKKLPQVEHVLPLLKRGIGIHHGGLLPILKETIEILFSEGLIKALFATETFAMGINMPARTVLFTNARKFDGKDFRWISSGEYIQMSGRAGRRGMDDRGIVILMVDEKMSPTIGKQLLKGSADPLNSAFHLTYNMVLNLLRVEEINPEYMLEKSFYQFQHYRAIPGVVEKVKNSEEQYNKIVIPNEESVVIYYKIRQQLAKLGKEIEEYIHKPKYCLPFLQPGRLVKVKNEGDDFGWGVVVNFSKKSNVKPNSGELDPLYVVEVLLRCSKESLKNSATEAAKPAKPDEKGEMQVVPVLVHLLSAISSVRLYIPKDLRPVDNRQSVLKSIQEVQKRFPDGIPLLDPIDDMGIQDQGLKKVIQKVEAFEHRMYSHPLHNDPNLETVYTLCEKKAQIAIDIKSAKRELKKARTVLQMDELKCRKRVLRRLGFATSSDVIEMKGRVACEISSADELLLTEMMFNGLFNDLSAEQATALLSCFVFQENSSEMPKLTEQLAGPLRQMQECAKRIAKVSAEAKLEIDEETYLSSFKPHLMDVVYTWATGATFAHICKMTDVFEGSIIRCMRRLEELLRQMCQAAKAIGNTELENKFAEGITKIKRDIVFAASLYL

[6] = target: T6, MTR4-KOW (human, UniProt P42285 645-787); assay: NMR titration; 1H-15N HSQC of 53 μM 15N-labelled MTR4-KOW with 0.25, 0.5, 1, 2 and 6 molar equivalents of unlabeled NVL^167–216; 298 K; phosphate buffered saline, 10% D2O
T6 construct: human MTR4 KOW domain, residues 645–787; Named without GST in MST, NMR and ITC; the methods say the His-GST tag was cleaved with 3C protease 'when appropriate', so it was probably removed; Isotope-labelled for NMR; also called unlabeled MTR4 KOW; 15N-labelled MTR4-KOW; source: E. coli BL21 star (DE3), purified (Ni-NTA, heparin, SEC); minimal medium with 15N/13C for NMR
T6 sequence (looked up): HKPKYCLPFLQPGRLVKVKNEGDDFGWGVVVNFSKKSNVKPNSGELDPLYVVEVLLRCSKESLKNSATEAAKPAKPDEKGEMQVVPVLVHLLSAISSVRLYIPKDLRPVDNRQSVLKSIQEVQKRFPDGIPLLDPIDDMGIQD

Measured: binding result

B1: Trx-NOP53^84–123 (domain or fragment)
chain: not shown
notes: human NOP53 (also known as GLTSCR2), residues 84–123; also called human Nop53 orthologue; human Nop53; not shown: Trx, N-terminal, kept
binds: [1] | [2] | [3]

B2: NVL^167–216 (peptide, UniProt O15381 167-216, looked up)
chain: KDSEGGWFIDKTPSVKKDSFFLDLSCEKSNPKKPITEIQDSKDSSLLESD
notes: Named without Trx in ITC, NMR and crystallisation; the methods say tags were cleaved with 3C protease 'when appropriate', so the tag was probably removed; also called NVL peptide; source: E. coli BL21 star (DE3), purified (Ni-NTA, SEC)
binds: [4] | [5] | [6]
